One experiment deals with T1, LacI-CFP-Nup153 (human, UniProt P49790 1-1475).
T1 sequence: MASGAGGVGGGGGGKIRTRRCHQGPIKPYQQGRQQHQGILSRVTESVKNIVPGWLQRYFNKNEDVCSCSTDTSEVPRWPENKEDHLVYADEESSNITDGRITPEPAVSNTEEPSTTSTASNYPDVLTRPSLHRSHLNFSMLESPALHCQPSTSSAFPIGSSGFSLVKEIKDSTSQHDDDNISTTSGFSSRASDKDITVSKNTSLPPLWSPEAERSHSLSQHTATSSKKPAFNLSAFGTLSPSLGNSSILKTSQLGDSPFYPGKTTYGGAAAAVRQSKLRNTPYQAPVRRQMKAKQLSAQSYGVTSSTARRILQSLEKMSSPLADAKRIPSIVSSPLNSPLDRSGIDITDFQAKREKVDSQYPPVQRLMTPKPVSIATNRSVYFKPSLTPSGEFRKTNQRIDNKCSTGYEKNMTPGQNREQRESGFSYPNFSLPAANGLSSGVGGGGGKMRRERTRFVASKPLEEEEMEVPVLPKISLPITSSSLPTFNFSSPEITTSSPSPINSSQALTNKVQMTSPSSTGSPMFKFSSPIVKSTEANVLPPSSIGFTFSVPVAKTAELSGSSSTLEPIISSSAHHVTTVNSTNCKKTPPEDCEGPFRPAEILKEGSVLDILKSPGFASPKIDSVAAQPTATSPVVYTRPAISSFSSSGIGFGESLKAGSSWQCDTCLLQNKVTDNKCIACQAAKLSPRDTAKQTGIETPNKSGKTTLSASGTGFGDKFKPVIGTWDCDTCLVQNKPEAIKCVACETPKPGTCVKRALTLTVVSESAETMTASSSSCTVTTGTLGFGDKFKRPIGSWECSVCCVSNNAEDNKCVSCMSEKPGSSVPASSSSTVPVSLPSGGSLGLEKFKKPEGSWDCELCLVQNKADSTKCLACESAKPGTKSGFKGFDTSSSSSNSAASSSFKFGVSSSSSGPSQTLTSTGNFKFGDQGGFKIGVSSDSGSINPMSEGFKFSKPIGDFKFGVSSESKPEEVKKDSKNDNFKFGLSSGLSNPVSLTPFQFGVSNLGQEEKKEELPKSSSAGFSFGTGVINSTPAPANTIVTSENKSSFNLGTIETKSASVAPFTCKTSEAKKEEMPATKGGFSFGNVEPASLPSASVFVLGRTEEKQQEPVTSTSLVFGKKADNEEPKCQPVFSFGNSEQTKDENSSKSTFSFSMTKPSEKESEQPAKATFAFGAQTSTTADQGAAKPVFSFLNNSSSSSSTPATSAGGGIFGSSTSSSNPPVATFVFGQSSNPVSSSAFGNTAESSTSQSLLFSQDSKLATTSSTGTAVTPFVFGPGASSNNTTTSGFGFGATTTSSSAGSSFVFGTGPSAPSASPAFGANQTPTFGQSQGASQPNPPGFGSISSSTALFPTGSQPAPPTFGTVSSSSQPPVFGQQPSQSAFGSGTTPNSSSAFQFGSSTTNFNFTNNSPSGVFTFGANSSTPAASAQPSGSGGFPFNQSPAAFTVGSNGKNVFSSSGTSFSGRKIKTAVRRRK
Kind of experiment: LacI/LacO array recruitment in cells.

Another experiment addresses T2, LacI-CFP-Nup155 (human, UniProt O75694 1-1391).
T2 sequence: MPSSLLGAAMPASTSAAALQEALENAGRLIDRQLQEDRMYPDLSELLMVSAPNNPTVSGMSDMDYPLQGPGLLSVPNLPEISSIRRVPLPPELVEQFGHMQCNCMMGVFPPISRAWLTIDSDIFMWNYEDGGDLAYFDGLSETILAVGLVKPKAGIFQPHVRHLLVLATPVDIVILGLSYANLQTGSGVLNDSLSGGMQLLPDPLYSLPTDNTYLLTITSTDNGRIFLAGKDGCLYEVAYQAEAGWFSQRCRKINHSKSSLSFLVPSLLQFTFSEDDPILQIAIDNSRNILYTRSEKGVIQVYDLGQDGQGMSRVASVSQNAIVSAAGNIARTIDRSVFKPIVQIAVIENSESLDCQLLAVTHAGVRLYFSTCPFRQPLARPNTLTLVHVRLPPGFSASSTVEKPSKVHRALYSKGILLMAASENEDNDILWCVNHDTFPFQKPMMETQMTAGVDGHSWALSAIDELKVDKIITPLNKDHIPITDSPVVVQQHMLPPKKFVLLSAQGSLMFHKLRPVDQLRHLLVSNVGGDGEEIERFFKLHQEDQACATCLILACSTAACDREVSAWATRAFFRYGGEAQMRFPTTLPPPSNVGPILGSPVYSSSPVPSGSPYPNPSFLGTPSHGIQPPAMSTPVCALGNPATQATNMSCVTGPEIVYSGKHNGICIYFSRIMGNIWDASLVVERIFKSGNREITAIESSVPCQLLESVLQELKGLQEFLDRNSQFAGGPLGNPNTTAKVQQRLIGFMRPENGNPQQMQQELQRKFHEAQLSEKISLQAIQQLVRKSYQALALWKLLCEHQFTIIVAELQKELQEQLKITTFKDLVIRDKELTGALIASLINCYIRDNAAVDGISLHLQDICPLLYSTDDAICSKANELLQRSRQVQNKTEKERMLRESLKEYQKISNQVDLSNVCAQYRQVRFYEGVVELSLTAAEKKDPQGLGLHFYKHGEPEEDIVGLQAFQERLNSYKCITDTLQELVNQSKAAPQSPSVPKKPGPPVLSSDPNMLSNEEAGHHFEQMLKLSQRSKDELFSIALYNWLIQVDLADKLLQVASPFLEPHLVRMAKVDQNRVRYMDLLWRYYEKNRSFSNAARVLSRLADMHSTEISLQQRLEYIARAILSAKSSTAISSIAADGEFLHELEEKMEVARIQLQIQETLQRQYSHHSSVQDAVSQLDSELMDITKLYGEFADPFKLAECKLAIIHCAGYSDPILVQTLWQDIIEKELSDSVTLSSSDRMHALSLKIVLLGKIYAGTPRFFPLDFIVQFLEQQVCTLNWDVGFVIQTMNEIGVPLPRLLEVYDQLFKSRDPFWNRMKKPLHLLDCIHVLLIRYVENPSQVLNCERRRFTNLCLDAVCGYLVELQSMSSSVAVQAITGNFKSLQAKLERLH
The experiment can be described thus: LacI/LacO array recruitment in cells.

We go through one molecule from publication PMC4615246 (Nucleus, 2015).

B1: Nup53 (endogenous) (natural protein)
chain: MAAFAVEPQGPALGSEPMMLGSPTSPKPGVNAQFLPGFLMGDLPAPVTPQPRSISGPSVGVMEMRSPLLAGGSPPQPVVPAHKDKSGAPPVRSIYDDISSPGLGSTPLTSRRQPNISVMQSPLVGVTSTPGTGQSMFSPASIGQPRKTTLSPAQLDPFYTQGDSLTSEDHLDDSWVTVFGFPQASASYILLQFAQYGNILKHVMSNTGNWMHIRYQSKLQARKALSKDGRIFGESIMIGVKPCIDKSVMESSDRCALSSPSLAFTPPIKTLGTPTQPGSTPRISTMRPLATAYKASTSDYQVISDRQTPKKDESLVSKAMEYMFGW
With B1, the “percent of transfected cells showing colocalization” value in the experiment with LacI-CFP-Nup153 is 14%; with LacI-CFP-Nup155 it was 46%.
